For one substance, percent of proteasomes with results are on record in article PMC4161314.

In this assay the target is 20S proteolytic core of the proteasome, mouse liver (mouse (endogenous in mouse liver)) (UniProt O55234). Nature of the assay: negative-stain electron microscopy; proteasomes co-purified with polyubiquitin conjugates on GstUBD beads, released at 37°C for 7 minutes, stained with 2% uranyl acetate; visual classification of side views, WT and PiZ samples.

Where “and” joins values, the source holds several entries; their conditions need not be identical. Identical values can stand only once.

UniProt O55234, sequence (O55234 whole entry, looked up): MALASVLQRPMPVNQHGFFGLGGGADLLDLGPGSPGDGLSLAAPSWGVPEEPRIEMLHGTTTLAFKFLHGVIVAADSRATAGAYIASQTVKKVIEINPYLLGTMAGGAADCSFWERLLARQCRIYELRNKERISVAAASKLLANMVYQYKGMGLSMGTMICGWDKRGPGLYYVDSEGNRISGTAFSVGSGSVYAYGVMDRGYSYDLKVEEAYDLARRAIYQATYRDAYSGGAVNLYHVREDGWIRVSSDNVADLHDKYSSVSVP

For the substance “19S activator of the proteasome, mouse liver (from UniProt P62334 1-389) (complex)”, the percent of proteasomes with at least one 19S cap is 93% and 90%.
